Results on five molecules are retold here after article PMC9408373, “CDC42-IQGAP Interactions Scrutinized: New Insights into the Binding Properties of the GAP-Related Domain” (International Journal of Molecular Sciences, 2022).

B1: human IQGAP1 GRD1 (aa 962-1345) (domain or fragment, UniProt P46940 962-1345, looked up)
chain: SKEKREKLEAYQHLFYLLQTNPTYLAKLIFQMPQNKSTKFMDSVIFTLYNYASNQREEYLLLRLFKTALQEEIKSKVDQIQEIVTGNPTVIKMVVSFNRGARGQNALRQILAPVVKEIMDDKSLNIKTDPVDIYKSWVNQMESQTGEASKLPYDVTPEQALAHEEVKTRLDSSIRNMRAVTDKFLSAIVSSVDKIPYGMRFIAKVLKDSLHEKFPDAGEDELLKIIGNLLYYRYMNPAIVAPDAFDIIDLSAGGQLTTDQRRNLGSIAKMLQHAASNKMFLGDNAHLSIINEYLSQSYQKFRRFFQTACDVPELQDKFNVDEYSDLVTLTKPVIYISIGEIINTHTLLLDHQDAIAPEHNDPIHELLDDLGEVPTIESLIGESS
notes: source: E. coli, purified (glutathione Sepharose), GST cleaved with thrombin; not shown: GST, N-terminal, cleaved
B2: human CDC42 (aa 1-178), wild type (natural protein)
chain: not shown
notes: Loaded with mant-GppNHp or mant-GDP (fluorescence assays) or GppNHp (SEC); also called CDC42 WT; CDC42^wt; source: E. coli, purified (glutathione Sepharose), GST cleaved with thrombin; not shown: GST, N-terminal, cleaved
B3: human IQGAP1 C794 (aa 863-1657) (domain or fragment, UniProt P46940 863-1657, looked up)
chain: DPPMVVVRKFVHLLDQSDQDFQEELDLMKMREEVITLIRSNQQLENDLNLMDIKIGLLVKNKITLQDVVSHSKKLTKKNKEQLSDMMMINKQKGGLKALSKEKREKLEAYQHLFYLLQTNPTYLAKLIFQMPQNKSTKFMDSVIFTLYNYASNQREEYLLLRLFKTALQEEIKSKVDQIQEIVTGNPTVIKMVVSFNRGARGQNALRQILAPVVKEIMDDKSLNIKTDPVDIYKSWVNQMESQTGEASKLPYDVTPEQALAHEEVKTRLDSSIRNMRAVTDKFLSAIVSSVDKIPYGMRFIAKVLKDSLHEKFPDAGEDELLKIIGNLLYYRYMNPAIVAPDAFDIIDLSAGGQLTTDQRRNLGSIAKMLQHAASNKMFLGDNAHLSIINEYLSQSYQKFRRFFQTACDVPELQDKFNVDEYSDLVTLTKPVIYISIGEIINTHTLLLDHQDAIAPEHNDPIHELLDDLGEVPTIESLIGESSGNLNDPNKEALAKTEVSLTLTNKFDVPGDENAEMDARTILLNTKRLIVDVIRFQPGETLTEILETPATSEQEAEHQRAMQRRAIRDAKTPDKMKKSKSVKEDSNLTLQEKKEKIQTGLKKLTELGTVDPKNKYQELINDIARDIRNQRRYRQRRKAELVKLQQTYAALNSKATFYGEQVDYYKSYIKTCLDNLASKGKVSKKPREMKGKKSKKISLKYTAARLHEKGVLLEIEDLQVNQFKNVIFEISPTEEVGDFEVKAKFMGVQMETFMLHYQDLLQLQYEGVAVMKLFDRAKVNVNLLIFLLNKKFYGK
notes: as for B1
B4: human CDC42 (aa 1-178) Q61L (natural protein)
chain: not shown
notes: also called CDC42^Q61L; CDC42(Q61L); source: E. coli, purified (glutathione Sepharose), GST cleaved with thrombin; not shown: GST, N-terminal, cleaved
B5: human IQGAP2 C795 (aa 780-1575) (domain or fragment, UniProt Q13576 780-1575, looked up)
chain: PLTVIRKFVYLLDQSDLDFQEELEVARLREEVVTKIRANQQLEKDLNLMDIKIGLLVKNRITLEDVISHSKKLNKKKGGEMEILNNTDNQGIKSLSKERRKTLETYQQLFYLLQTNPLYLAKLIFQMPQNKSTKFMDTVIFTLYNYASNQREEYLLLKLFKTALEEEIKSKVDQVQDIVTGNPTVIKMVVSFNRGARGQNTLRQLLAPVVKEIIDDKSLIINTNPVEVYKAWVNQLETQTGEASKLPYDVTTEQALTYPEVKNKLEASIENLRRVTDKVLNSIISSLDLLPYGLRYIAKVLKNSIHEKFPDATEDELLKIVGNLLYYRYMNPAIVAPDGFDIIDMTAGGQINSDQRRNLGSVAKVLQHAASNKLFEGENEHLSSMNNYLSETYQEFRKYFKEACNVPEPEEKFNMDKYTDLVTVSKPVIYISIEEIISTHSLLLEHQDAIAPEKNDLLSELLGSLGEVPTVESFLGEGAVDPNDPNKANTLSQLSKTEISLVLTSKYDIEDGEAIDSRSLMIKTKKLIIDVIRNQPGNTLTEILETPATAQQEVDHATDMVSRAMIDSRTPEEMKHSQSMIEDAQLPLEQKKRKIQRNLRTLEQTGHVSSENKYQDILNEIAKDIRNQRIYRKLRKAELAKLQQTLNALNKKAAFYEEQINYYDTYIKTCLDNLKRKNTRRSIKLDGKGEPKGAKRAKPVKYTAAKLHEKGVLLDIDDLQTNQFKNVTFDIIATEDVGIFDVRSKFLGVEMEKVQLNIQDLLQMQYEGVAVMKMFDKVKVNVNLLIYLLNKKFYGK
notes: as for B1

What all share (settings): both partners purified
The target of test [1] is B2. The test can be described thus: SEC; GppNHp-bound CDC42 mixed with IQGAP1 GRD1; Superdex 200 10/300, 30 mM Tris/HCl pH 7.5, 150 mM NaCl, 5 mM MgCl2; stoichiometry from calibrated elution volumes. (SEC sorts molecules by how far they enter the pores of the column.)
In test [2] the target is B4. The description is as above.
Test [3] has as its target T1, human IQGAP2 GRD2 (aa 875-1246) (human, UniProt Q13576 875-1246).
T1 construct: source: E. coli, purified (glutathione Sepharose), GST cleaved with thrombin; not shown: GST, N-terminal, cleaved
T1 sequence (looked up): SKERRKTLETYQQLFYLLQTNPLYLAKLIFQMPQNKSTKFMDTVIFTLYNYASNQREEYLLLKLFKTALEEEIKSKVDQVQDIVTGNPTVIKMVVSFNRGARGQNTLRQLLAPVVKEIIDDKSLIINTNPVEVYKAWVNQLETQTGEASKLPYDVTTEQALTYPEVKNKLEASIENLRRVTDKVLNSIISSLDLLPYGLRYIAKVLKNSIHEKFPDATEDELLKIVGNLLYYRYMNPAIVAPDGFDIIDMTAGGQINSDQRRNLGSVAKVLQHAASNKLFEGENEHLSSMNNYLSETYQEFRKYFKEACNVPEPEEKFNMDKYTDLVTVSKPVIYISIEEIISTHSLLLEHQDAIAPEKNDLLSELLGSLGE
The test can be described thus: fluorescence polarisation; 1 µM mant-GppNHp-bound CDC42 in the cuvette, IQGAP protein titrated; quadratic ligand binding equation.

The target in test [4] is B5. Described as above.
Test [5] concerns the target B1. Described as above.
The target of test [6] is B3. Described as above.
The target of test [7] is B2. The test can be described thus: fluorescence polarisation; 1 µM mant-GDP-bound CDC42 in the cuvette, IQGAP protein titrated; quadratic ligand binding equation.

For B1, the stoichiometry N (usually the number of molecules, sites or subunits per partner or assembly) in test [1] is 1 GRD1 per CDC42 (2:2); in test [2] it was 2 ratio 2:1 as printed (which partner is the 2 is not told).
For B2, the Kd (commonly a measure of binding affinity in units of concentration) in test [3] stood at 69000 nM; in test [4], 900 nM; in test [5] it was 186000 nM; in test [6], 600 nM.
Regarding B3, the “fold higher affinity for mGppNHp-bound than for mGDP-bound CDC42” value in test [7] is roughly 100 fold.
Regarding B4, the results for the Kd in test [3] and in test [5] were 2500 nM and 2700 nM, respectively.
With B5, the “fold higher affinity for mGppNHp-bound than for mGDP-bound CDC42” value in test [7] is roughly 100 fold.
